Data on 20 sequences can be found in the Immune Epitope Database (IEDB).

Test [1] deals with HLA-B*15:01. Description: IEDB peptide-MHC binding, purified MHC/competitive/radioactivity; filed as Kd, often an IC50 or EC50 that approximates it; ≥ and ≤ were set here for values at or beyond the usual limits of such assays.
In test [2] the target is HLA-B*44:03. Described as above.
For test [3], the target named is HLA-A*01:01. Described as above. Particulars: source organism: Dengue virus 2 Jamaica/1409/1983.
In test [4] the target is HLA-A*30:02. Described as above. Particulars: source organism: Dengue virus 2 Jamaica/1409/1983.
Test [5] has as its target HLA-B*07:02. Described as above.
Test [6] deals with HLA-B*35:01. The description is as above.
The target of test [7] is HLA-B*51:01. Described as above.
Test [8] deals with HLA-B*53:01. The test is described as above.
The target of test [9] is HLA-B*54:01. The test is described as above.
For test [10], the target named is HLA-A*24:03. Description: IEDB peptide-MHC binding, purified MHC/direct/fluorescence; filed as Kd, often an IC50 or EC50 that approximates it; ≥ and ≤ were set here for values at or beyond the usual limits of such assays. As to conditions: source organism: Vibrio parahaemolyticus.
[11] abbreviates: source organism: Vaccinia virus WR.
Where [12] appears, read: source organism: Dengue virus 4 Philippines/H241/1956.
Setting [13] is: source organism: SARS coronavirus Tor2.
Where [14] appears, read: source organism: Human alphaherpesvirus 2.
[15] abbreviates: source organism: Triticum aestivum.

Some results are limits rather than exact numbers.

A word on the Kd: it is the constant that tells how readily two partners part at equilibrium. In the case of YISKVFEHV, the Kd in test [1] (setting [11]) came out at 94.2 nM.
For MEAEGVITQ, the Kd in test [2] (setting [12]) was 8980 nM.
Consider LSPVRVPNY, for which the Kd in test [3] was 5420 nM; in test [4], 50.2 nM.
AVHQVFGSVY: in test [1] (setting [12]), the Kd was found to be 1.1 nM.
Consider ILLKMVTHF, for which the Kd in test [1] (setting [12]) was found to be 1.72 nM.
With LPSLEYGANY, the Kd in test [5] (setting [11]) is not below 45100 nM; in test [6] (setting [11]), 15.1 nM; in test [7] (setting [11]), not below 69600 nM; in test [8] (setting [11]), 13.3 nM; in test [9] (setting [11]) it was 960 nM.
Taken in the same sequence, the figures for SPMLYQLLEA were 94 nM, 143 nM, not below 69600 nM, 228 nM and 8.77 nM.
Consider RSISRTENF, for which, in [1] (setting [11]), the Kd was determined as 4.77 nM.
In the case of SPSGVYQCAM, the Kd is 6.09 nM in test [5] (setting [13]); 26.3 nM in test [6] (setting [13]); 1070 nM in test [7] (setting [13]); 748 nM in test [8] (setting [13]); 2810 nM in [9] (setting [13]).
For MPNESRVKQW, the Kd is 2390 nM in [5] (setting [11]); 2290 nM in test [6] (setting [11]); not below 69600 nM in [7] (setting [11]); 30.4 nM in test [8] (setting [11]); 5360 nM in test [9] (setting [11]).
RFTPVKHEL gave a Kd in [10] of 5 nM.
Regarding CPKIFNNNY, the Kd in [5] (setting [11]) is not below 72900 nM; in test [6] (setting [11]), 160 nM; in test [7] (setting [11]), not below 77500 nM; in test [8] (setting [11]), 331 nM; in test [9] (setting [11]), 13000 nM.
For GPHETITAL, the Kd in test [5] (setting [14]) was 1.4 nM; in [6] (setting [14]) it was 797 nM; in test [7] (setting [14]), not below 77500 nM; in test [8] (setting [14]), 3350 nM; in test [9] (setting [14]) it was 4850 nM.
On to RYRGEDGCWY, for which the Kd in test [4] is 198 nM.
Turning to QPQQLPQFEEI, the Kd in test [5] (setting [15]) is not below 64000 nM; in test [6] (setting [15]), not below 63700 nM; in test [7] (setting [15]) it was 14100 nM; in test [8] (setting [15]), not below 63700 nM; in test [9] (setting [15]), not below 63700 nM.
For the sequence VPLVQQQQFL, the Kd in test [5] (setting [15]) was 8750 nM; in [6] (setting [15]), 16100 nM; in test [7] (setting [15]) it was 5910 nM; in test [8] (setting [15]), 4820 nM; in test [9] (setting [15]) it was not below 69900 nM.
On to EEISTSLSF, for which the Kd in [1] (setting [11]) came out at 2.05 nM.
Take DPEYFDNERI: the Kd in test [5] (setting [11]) was not below 69600 nM; in test [6] (setting [11]) it was not below 34800 nM; in test [7] (setting [11]) it was 3860 nM; in test [8] (setting [11]) it was 1740 nM; in test [9] (setting [11]) it was 2260 nM.
On to NEMVLLQMED, for which the Kd in test [2] (source organism: Dengue virus 2 Jamaica/1409/1983) worked out at 6080 nM.
Regarding HPFIYVIRHV, the Kd in test [5] (setting [11]) is 11700 nM; in test [6] (setting [11]), 7040 nM; in test [7] (setting [11]), 1020 nM; in [8] (setting [11]), 2010 nM; in test [9] (setting [11]), 2.71 nM.
